Biological target: T1, DPP-IV as immobilized on the CM5 surface plasmon resonance sensor (Biacore) (human, UniProt P27487 31-766)
T1 construct: Same recombinant sDPP-IV polypeptide as m1; Amine-coupled, about 10 000 RU; in one flow cell cross-linked with carbodiimide/N-hydroxysuccinimide; also called sDPP-IV
Assay: SPR (Biacore), DPP-IV immobilized on CM5 sensor
Description: The organic adlayer on this sensor type consists of carboxymethylated dextran (MW≈100 kDA). […] The surfaces of two flow cells were modified with protein. […] Hepes buffer (0.01 M Hepes, pH 7.4, 0.15 M NaCl, 3 mM EDTA, 0.005% polysorbate 20 (v/v)) was used as the running buffer. […] The final inhibitor solution contained less than 0.1% DMSO. Binding experiments were carried out by contacting the immobilized protein surfaces with inhibitor solutions of varying concentrations at a flow rate of 10 μl/min or 30 μl/min. After each contact with inhibitor, the protein surfaces were regenerated by extensively washing with running buffer.

T1 sequence (P27487 31-766 limits assumed): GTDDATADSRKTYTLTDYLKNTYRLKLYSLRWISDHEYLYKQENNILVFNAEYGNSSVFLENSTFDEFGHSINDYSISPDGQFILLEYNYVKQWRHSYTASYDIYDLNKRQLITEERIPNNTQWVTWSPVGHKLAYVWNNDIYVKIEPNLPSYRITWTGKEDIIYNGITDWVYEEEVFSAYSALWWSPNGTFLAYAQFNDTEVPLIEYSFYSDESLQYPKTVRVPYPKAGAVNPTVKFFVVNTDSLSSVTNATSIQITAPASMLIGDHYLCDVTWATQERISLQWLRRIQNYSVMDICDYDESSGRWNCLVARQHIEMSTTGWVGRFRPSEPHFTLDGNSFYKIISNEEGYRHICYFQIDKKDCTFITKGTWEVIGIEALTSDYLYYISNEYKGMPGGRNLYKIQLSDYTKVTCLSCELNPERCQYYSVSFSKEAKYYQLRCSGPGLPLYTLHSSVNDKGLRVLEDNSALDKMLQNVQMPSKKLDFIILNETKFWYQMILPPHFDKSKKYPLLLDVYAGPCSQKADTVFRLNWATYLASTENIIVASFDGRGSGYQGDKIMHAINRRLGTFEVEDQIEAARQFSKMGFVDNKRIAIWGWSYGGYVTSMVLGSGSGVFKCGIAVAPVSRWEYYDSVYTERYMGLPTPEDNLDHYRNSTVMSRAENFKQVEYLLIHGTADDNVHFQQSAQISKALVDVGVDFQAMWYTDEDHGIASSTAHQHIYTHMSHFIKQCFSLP

Kd: 3.15 nM
koff: 8.75e-05 s⁻¹
kon: 29800 M⁻¹ s⁻¹
B1: adenosine deaminase (ADA; Sigma Type IV, from calf intestinal mucosa) (enzyme, bovine, UniProt P56658 2-357, looked up)
chain: AQTPAFNKPKVELHVHLDGAIKPETILYYGRKRGIALPADTPEELQNIIGMDKPLSLPEFLAKFDYYMPAIAGCREAVKRIAYEFVEMKAKDGVVYVEVRYSPHLLANSKVEPIPWNQAEGDLTPDEVVSLVNQGLQEGERDFGVKVRSILCCMRHQPSWSSEVVELCKKYREQTVVAIDLAGDETIEGSSLFPGHVKAYAEAVKSGVHRTVHAGEVGSANVVKEAVDTLKTERLGHGYHTLEDATLYNRLRQENMHFEVCPWSSYLTGAWKPDTEHPVVRFKNDQVNYSLNTDDPLIFKSTLDTDYQMTKNEMGFTEEEFKRLNINAAKSSFLPEDEKKELLDLLYKAYGMPSPA
notes: Bought protein purified from tissue; also called ADA from bovine

From US20070100561A1 (published 2007)
